Results reported in patent US20220119534A1 (DRAGONFLY THERAPEUTICS, published 2022).
Values joined by “and” are separate entries in the source; they are usually repeats but may differ in a detail not shown here. Equal values may be shown once. One block for each binder: values may come before it.

Tests used:
Human CLEC12A-His [1] = biological target: T1, Human CLEC12A-His (human, UniProt Q5QGZ9 65-265); assay: SPR Biacore 8K 37 C; TriNKET captured on anti-hFc chip, hCLEC12A-His as analyte; 1:1 fit; after 4 wks 25 C in CST pH 7.0, n=2
T1 construct: Recombinant soluble protein made in house (Dragonfly Tx); The hCLEC12A spot of the HuProt array is written under this molecule as well; also called hCLEC12A-His; hCLEC12A; not shown: His tag
T1 sequence: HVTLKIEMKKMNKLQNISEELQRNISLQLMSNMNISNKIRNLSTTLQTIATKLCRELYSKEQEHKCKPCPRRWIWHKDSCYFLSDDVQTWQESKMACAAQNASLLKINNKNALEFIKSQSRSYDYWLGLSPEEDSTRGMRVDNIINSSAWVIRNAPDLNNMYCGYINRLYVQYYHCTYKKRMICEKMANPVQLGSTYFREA

mFc-hNKG2D [2] = biological target: T2, mFc-hNKG2D (human, UniProt P26718 73-216); assay: SPR Biacore 8K 37 C; mFc-hNKG2D captured on anti-mFc chip, TriNKET as analyte; steady state fit; control sample, n=2
T2 construct: extracellular domain; Made in house (Dragonfly Tx); the order of tag and ECD follows the name mFc-hNKG2D; also called mFc-tagged human NKG2D; not shown: mouse Fc tag
T2 sequence (looked up): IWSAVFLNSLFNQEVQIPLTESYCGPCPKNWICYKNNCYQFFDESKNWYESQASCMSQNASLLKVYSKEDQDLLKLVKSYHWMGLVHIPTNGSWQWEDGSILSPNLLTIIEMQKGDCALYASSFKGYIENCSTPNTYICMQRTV

mFc-hNKG2D [3] = biological target: T2, mFc-hNKG2D; assay: SPR Biacore 8K 37 C; mFc-hNKG2D captured on anti-mFc chip, TriNKET as analyte; steady state fit; after 2 wks 40 C at pH 5.0
Procedure: Association was monitored for 60 seconds and dissociation was monitored for 60 seconds. Surfaces were regenerated between cycles with three pulses of 10 mM glycine-HCl, pH 1.7 injected for 20 seconds at 100 μL/min. HBS-EP+ (1×) buffer was used throughout the experiment. Data were analyzed using Biacore 8K Insight evaluation software (GE Healthcare).

Human CLEC12A-His [4] = biological target: T3, Human CLEC12A-His (human, UniProt Q5QGZ9 65-265); assay: SPR, hCLEC12A (K244) WT
T3 construct: Recombinant soluble protein made in house; also called hCLEC12A-His; hCLEC12A; not shown: His tag
T3 sequence: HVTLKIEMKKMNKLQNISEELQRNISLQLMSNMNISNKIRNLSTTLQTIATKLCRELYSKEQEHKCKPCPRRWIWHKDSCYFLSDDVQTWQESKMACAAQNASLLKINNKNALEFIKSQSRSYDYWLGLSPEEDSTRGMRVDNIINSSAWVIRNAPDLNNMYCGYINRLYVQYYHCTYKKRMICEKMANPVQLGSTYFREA

[5] = biological target: T4, recombinant human CLEC12A-His (human, UniProt Q5QGZ9 65-265); assay: SPR 37C
T4 construct: also called hCLEC12A-His; hCLEC12A
T4 sequence: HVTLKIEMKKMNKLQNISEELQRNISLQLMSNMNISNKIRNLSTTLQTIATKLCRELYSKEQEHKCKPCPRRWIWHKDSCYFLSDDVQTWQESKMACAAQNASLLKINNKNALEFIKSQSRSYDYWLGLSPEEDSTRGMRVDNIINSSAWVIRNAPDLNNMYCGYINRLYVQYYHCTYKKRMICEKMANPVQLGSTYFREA

[6] = biological target: T5, recombinant human CD32a R131 (human, UniProt P12318 36-218, limits assumed, biotinylated); assay: SPR 25C, steady state
T5 construct: also called FcγRIIa R131
T5 sequence (looked up): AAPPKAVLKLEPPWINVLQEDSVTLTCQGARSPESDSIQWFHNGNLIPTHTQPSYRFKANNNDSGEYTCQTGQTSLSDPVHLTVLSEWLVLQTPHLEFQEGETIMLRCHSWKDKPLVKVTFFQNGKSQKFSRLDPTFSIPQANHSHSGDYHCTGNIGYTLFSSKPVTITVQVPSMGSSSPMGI

[7] = biological target: T4, recombinant human CLEC12A-His; assay: SPR

Kd (Human CLEC12A-His [1]): 0.91 nM | koff (Human CLEC12A-His [1]): 0.000719 s⁻¹ | kon (Human CLEC12A-His [1]): 788000 M⁻¹ s⁻¹ | Kd (mFc-hNKG2D [2]): 791 nM | Kd (mFc-hNKG2D [3]): 677 nM
B1: F3'-1602 TriNKET (bispecific antibody, human IgG1, kappa)
chain: QLQLQESGPGLVKPSETLSLTCTVSGFSLTNYGLHWIRQPPGKCLEWIGVIWSGGKTDYNPSLKSRVTISKDTSKNQFSLKLSSVQAADTAVYYCAKYDYDDSLDYWGQGTLVTVSSGGGGSGGGGSGGGGSGGGGSDIQMTQSPSSLSASVGDRVTITCHASQNINFWLSWYQQKPGKAPKLLIYEASNLHTGVPSRFSGSGSGTRFTLTISSLQPEDIATYYCQQSHSYPLTFGCGTKLEIKGSDKTHTCPPCPAPELLGGPSVFLFPPKPKDTLMISRTPEVTCVVVDVSHEDPEVKFNWYVDGVEVHNAKTKPREEQYNSTYRVVSVLTVLHQDWLNGKEYKCKVSNKALPAPIEKTISKAKGQPREPRVYTLPPCRDELTKNQVSLTCLVKGFYPSDIAVEWESNGQPENNYKTTPPVLVSDGSFTLYSKLTVDKSRWQQGNVFSCSVMHEALHNHYTQKSLSLSPG
heavy: EVQLVESGGGLVKPGGSLRLSCAASGFTFSSYSMNWVRQAPGKGLEWVSSISSSSSYIYYADSVKGRFTISRDNAKNSLYLQMNSLRAEDTAVYYCARGAPIGAAAGWFDPWGQGTLVTVSSASTKGPSVFPLAPSSKSTSGGTAALGCLVKDYFPEPVTVSWNSGALTSGVHTFPAVLQSSGLYSLSSVVTVPSSSLGTQTYICNVNHKPSNTKVDKKVEPKSCDKTHTCPPCPAPELLGGPSVFLFPPKPKDTLMISRTPEVTCVVVDVSHEDPEVKFNWYVDGVEVHNAKTKPREEQYNSTYRVVSVLTVLHQDWLNGKEYKCKVSNKALPAPIEKTISKAKGQPREPQVCTLPPSRDELTENQVSLTCLVKGFYPSDIAVEWESNGQPENNYKTTPPVLDSDGSFFLYSWLTVDKSRWQQGNVFSCSVMHEALHNHYTQKSLSLSPG
light: DIQMTQSPSSVSASVGDRVTITCRASQGISSWLAWYQQKPGKAPKLLIYAASSLQSGVPSRFSGSGSGTDFTLTISSLQPEDFATYYCQQGVSFPRTFGGGTKVEIKRTVAAPSVFIFPPSDEQLKSGTASVVCLLNNFYPREAKVQWKVDNALQSGNSQESVTEQDSKDSTYSLSSTLTLSKADYEKHKVYACEVTHQGLSSPVTKSFNRGEC
notes: Trispecific F3' format: CLEC12A scFv-Fc paired with NKG2D Fab-Fc; Stressed and control samples of the stability studies are the same molecule; also called AB0237

Kd (Human CLEC12A-His [4]): 1.65 nM | koff (Human CLEC12A-His [4]): 0.00115 s⁻¹ | kon (Human CLEC12A-His [4]): 698000 M⁻¹ s⁻¹
B2: AB0192 TriNKET (other)
chain: EVQLVESGGGVVQPGGSLRLSCAASGFTFNAFGMHWVRQAPGKCLEWVAFISSGSTSIYYANTVKGRFTISRDNSKNTLYLQMNSLRAEDTAVYYCARDGYPTGGAMDYWGQGTSVTVSSGGGGSGGGGSGGGGSGGGGSDIQMTQSPSSLSASVGDRVTITCKASQDIYNYLSWFQQKPGKAPKPLIYRANILVSGVPSRFSGSGSGQDYTFTISSLQPEDIATYYCLQFDAFPFTFGCGTKLEIKGSDKTHTCPPCPAPELLGGPSVFLFPPKPKDTLMISRTPEVTCVVVDVSHEDPEVKFNWYVDGVEVHNAKTKPREEQYNSTYRVVSVLTVLHQDWLNGKEYKCKVSNKALPAPIEKTISKAKGQPREPRVYTLPPCRDELTKNQVSLTCLVKGFYPSDIAVEWESNGQPENNYKTTPPVLVSDGSFTLYSKLTVDKSRWQQGNVFSCSVMHEALHNHYTQKSLSLSPG
heavy: EVQLVESGGGLVKPGGSLRLSCAASGFTFSSYSMNWVRQAPGKGLEWVSSISSSSSYIYYADSVKGRFTISRDNAKNSLYLQMNSLRAEDTAVYYCARGAPIGAAAGWFDPWGQGTLVTVSSASTKGPSVFPLAPSSKSTSGGTAALGCLVKDYFPEPVTVSWNSGALTSGVHTFPAVLQSSGLYSLSSVVTVPSSSLGTQTYICNVNHKPSNTKVDKKVEPKSCDKTHTCPPCPAPELLGGPSVFLFPPKPKDTLMISRTPEVTCVVVDVSHEDPEVKFNWYVDGVEVHNAKTKPREEQYNSTYRVVSVLTVLHQDWLNGKEYKCKVSNKALPAPIEKTISKAKGQPREPQVCTLPPSRDELTENQVSLTCLVKGFYPSDIAVEWESNGQPENNYKTTPPVLDSDGSFFLYSWLTVDKSRWQQGNVFSCSVMHEALHNHYTQKSLSLSPG
light: DIQMTQSPSSVSASVGDRVTITCRASQGISSWLAWYQQKPGKAPKLLIYAASSLQSGVPSRFSGSGSGTDFTLTISSLQPEDFATYYCQQGVSFPRTFGGGTKVEIKRTVAAPSVFIFPPSDEQLKSGTASVVCLLNNFYPREAKVQWKVDNALQSGNSQESVTEQDSKDSTYSLSSTLTLSKADYEKHKVYACEVTHQGLSSPVTKSFNRGEC
notes: the condition stands under assay; also called AB0192 Lot AB0192-005

Kd [5]: 1.2 nM and 1.19 nM | koff [5]: 0.000952 s⁻¹ and 0.000913 s⁻¹ | kon [5]: 791000 M⁻¹ s⁻¹ and 768000 M⁻¹ s⁻¹ | Kd [6]: 1400 nM and 1300 nM and 1700 nM and 1200 nM | Kd [7]: 0.8 nM
B3: F3'-1602 TriNKET (other)
chain: QLQLQESGPGLVKPSETLSLTCTVSGFSLTNYGLHWIRQPPGKCLEWIGVIWSGGKTDYNPSLKSRVTISKDTSKNQFSLKLSSVQAADTAVYYCAKYDYDDSLDYWGQGTLVTVSSGGGGSGGGGSGGGGSGGGGSDIQMTQSPSSLSASVGDRVTITCHASQNINFWLSWYQQKPGKAPKLLIYEASNLHTGVPSRFSGSGSGTRFTLTISSLQPEDIATYYCQQSHSYPLTFGCGTKLEIKGSDKTHTCPPCPAPELLGGPSVFLFPPKPKDTLMISRTPEVTCVVVDVSHEDPEVKFNWYVDGVEVHNAKTKPREEQYNSTYRVVSVLTVLHQDWLNGKEYKCKVSNKALPAPIEKTISKAKGQPREPRVYTLPPCRDELTKNQVSLTCLVKGFYPSDIAVEWESNGQPENNYKTTPPVLVSDGSFTLYSKLTVDKSRWQQGNVFSCSVMHEALHNHYTQKSLSLSPG
heavy: EVQLVESGGGLVKPGGSLRLSCAASGFTFSSYSMNWVRQAPGKGLEWVSSISSSSSYIYYADSVKGRFTISRDNAKNSLYLQMNSLRAEDTAVYYCARGAPIGAAAGWFDPWGQGTLVTVSSASTKGPSVFPLAPSSKSTSGGTAALGCLVKDYFPEPVTVSWNSGALTSGVHTFPAVLQSSGLYSLSSVVTVPSSSLGTQTYICNVNHKPSNTKVDKKVEPKSCDKTHTCPPCPAPELLGGPSVFLFPPKPKDTLMISRTPEVTCVVVDVSHEDPEVKFNWYVDGVEVHNAKTKPREEQYNSTYRVVSVLTVLHQDWLNGKEYKCKVSNKALPAPIEKTISKAKGQPREPQVCTLPPSRDELTENQVSLTCLVKGFYPSDIAVEWESNGQPENNYKTTPPVLDSDGSFFLYSWLTVDKSRWQQGNVFSCSVMHEALHNHYTQKSLSLSPG
light: DIQMTQSPSSVSASVGDRVTITCRASQGISSWLAWYQQKPGKAPKLLIYAASSLQSGVPSRFSGSGSGTDFTLTISSLQPEDFATYYCQQGVSFPRTFGGGTKVEIKRTVAAPSVFIFPPSDEQLKSGTASVVCLLNNFYPREAKVQWKVDNALQSGNSQESVTEQDSKDSTYSLSSTLTLSKADYEKHKVYACEVTHQGLSSPVTKSFNRGEC
notes: CLEC12A scFv-Fc, NKG2D A49MI Fab-Fc, human IgG1 Fc; also called AB0237
